Results taken from a protein production outcome set (Wang et al. 2014).

Experiment: label from the status in PepcDB records

Q: With “MAETTPKVKGHVVILPYPVQGHLNPMVQFAKRLVSKNVKVTIATTTYTASSITTPSLSVEPISDGFDFIPIGIPGFSVDTYSESFKLNGSETLTLLIEKFKSTDSPIDCLIYDSFLPWGLEVARSMELSAASFFTNNLTVCSVLRKFSNGDFPLPADPNSAPFRIRGLPSLSYDELPSFVGRHWLTHPEHGRVLLNQFPNHENADWLFVNGFEGLEETQDCENGESDAMKATLIGPMIPSAYLDDRMEDDKDYGASLLKPISKECMEWLETKQAQSVAFVSFGSFGILFEKQLAEVAIALQESDLNFLWVIKEAHIAKLPEGFVESTKDRALLVSWCNQLEVLAHESIGCFLTHCGWNSTLEGLSLGVPMVGVPQWSDQMNDAKFVEEVWKVGYRAKEEAGEVIVKSEELVRCLKGVMEGESSVKIRESSKKWKDLAVKAMSEGGSSDRSINEFIESLGK” as the sequence, how does the protein production read?
A: failed

Q: For “MAFAPRYSSLIPCALALAASLAGTPDGARAQAPDGPKHPLEKPLAHPPAPPEKLPRVPTDRTKGLDFLFGALKAAPDETSAKHVEGRIWALWSQTTSDTTALLMARSKVAMDAKQFDVALKLLDAVVKLKPDYVEGWNRRATIYYLQNDYMHSLEDIEQVLAREPRHFGALAGLGMIMQELGDDKRALDAFRRALALNPHLDKVPDLVKTLSEKVEGRDI”, which protein production is on record?
A: failed

Q: With “MAFAYPKLSEPDTKGEYADGKYKTEGTATEDYTERFQEEIQKVADDNFPGKKNVHLPWKETKEGDIAFIFKNPKKKPILTDSRGKPLKEGTVIRGGSKIRIAGVIAAWEKGAKRGVSLWPDAVRVIKLSEGLEHHHHHH” as the sequence, how does the protein production read?
A: failed

Q: With “MAFESAGAGELFLLGRLLFGGVLAFMGLNHFQNAGQMAPYAEAKGLPAPVASVYGSGGLLLVSGVLVILGAYPVIAAGALATFLVASAVMMHNFWAVPDDQMQDEMTQFLKNIALAGGALSLLAVAGTSWPYTVGLSLF” as the sequence, how does the protein production read?
A: failed

Q: With “MAFKVVISDKEKSVQMEVDPSESRGLIGLTIGDEFDGSIIGLSGYKLKITGGSDKNGFPMKKTVPGARRIRSLVSGGVGYKPRRDGERRRKTFRGNTISDDIVQINTVVIEKGEKPLEELLGADEELEHHHHHH” as the sequence, how does the protein production read?
A: failed

Q: Which protein production does the source give for “MAFPEYSPAASAATFADLQIHPRVLRAIGDVGYESPTAIQAATIPALMAGSDVVGLAQTGTGKTAAFAIPMLSKIDITSKVPQALVLVPTRELALQVAEAFGRYGAYLSQLNVLPIYGGSSYAVQLAGLRRGAQVVVGTPGRVIDHLERATLDLSRVDFLVLDEADEMLTMGFADDVERILSETPEYKQVALFSATMPPAIRKLSAKYLHDPFEVTCKAKTAVAENISQSYIQVARKMDALTRVLEVEPFEAMIVFVRTKQATEEIAEKLRARGFSAAAISGDVPQAQRERTITALRDGDIDILVATDVAARGLDVERISHVLNYDIPHDTESYVHRIGRTGRAGRSGAALIFVSPRELHLLKAIEKATRQTLTEAQLPTVEDVNTQRVAKFADSITNALGGPGIELFRRLVEEYEREHDVPMADIAAALAVQCRGGEAFLMAPDPPLSRRNRDQRRDRPQRPKRRPDLTTYRVAVGKRHKIGPGAIVGAIANEGGLHRSDFGQIRIGPDFSLVELPAKLPRATLKKLAQTRISGVLIDLRPYRPPDAARRHNGGKPRRKHVG” here?
A: failed

Q: For “MAFQLHPRLQQDCIVLGNLPLCKVLLIKEDIGPWLILVPRIEELKEIHHMTDEQQIQFIKESSAVAQLLEDNFSPDKINIGALGNLVPQLHIHHIARFTTDVAWPGPVWGNTTGVIRAQSSQTQLVDLLRDKLSNISGFKRLEHHHHHH”, which protein production is on record?
A: not failed

Q: With “MAFRYEHQEPGSRVISGGRDHSNRLLERLGFTVIDGRPTTVEGERAWRLAVWSHLQLTEDLSQVPPGVLRAFGVYGGGQGIWMDKARTDAVHEGGITMGVLHTGAHYPDEISDNDVIYHYPTTGRGPGRDESEVAATKAAATLKLPIFVIAKPTPRSSVRIVRLAWVEGWEERSRIFLISFGDSRPEHLLTEDHSDNQPFSLTGNRSRSSRRNVRERPGQRRFKLRVFQRYGPRCPLSGIAVPEMIEAAHLRPDAEDGTDDPRNGLPLNAALHRAYDAYLFAIEPETLSVVTRPQGPTIEELGIFTPHLRELPRRPHTEALRWRYREWQLRIGTQG” as the sequence, how does the protein production read?
A: failed

Q: For “MAFTESDVYNNEAFFKQYMKRRYRENSPNELIEKPAFFQLIGDVKGKKILDLGCGDAIFGKELLEKDCHSYTGIEGSELMYEKAKKQLENKNGIVHFLNLKDYTYPPATFDLVTSRLALHYIEHLPIIFQNVYETLKTNGTFTFSVQHPVITSSFESLQTSGKRTSWLVDDYFKTGKRVEPWIDQKVIKYHRTTEEYFTLLQQAGFTITNLKEATPNQTYFQSAEEYERRLRIPLFLLFSCRKLEHHHHHH”, which protein production is on record?
A: not failed

Q: Which protein production does the source give for “MAGETPEQGEGRIISGRYRLLRTLGAGGMGRVWLAYDAELACEVAVKEIALPDLPIDASEPVQRIARARSEARNAARLRGHPHVATVHDVVVHEGLPWIVMEHVPDAIDLQAVVRRSGPLTPARTARIGVAVLDALTAGHRIGILHRDVKPANILLAPDASGDPYARVLLTDYGIALQPESREPRLTATAGILGTPGYLAPERARGEPPTPAADLFSLGATLYATVEGRGPFDRHGEYATLTALLGEEPTPPVRAGELGAVLHGLLIKDPVRRLAPEAVARGLEAVARAAPGEGFGPPPGWGSAPSVGQGFGPPPQGFGPPPDGFGPPSGTPSVSPPSAEGATTAPGAPGAPQVSAPGTPQTPGAPRTPHTPHTPQTPAGGPGTPPGSPSAYNPWRPTPPSGPYDPGNPYASSPSSPYAGTGAPAAYEGGPAYFPPRPSPRRKSAAALVALVVAAALVVTGGIWAALSLTGGPTGDGGGTTGQRAKKSPPVSGPQSTKPAGPVLPYGEQVGLTEPLQAGDCVRAVWSGAAFKSVPNLGVVDCADDWPDGQVVAVDTATDYADARDRGARRCAGQSQATADALPDAGVYAVAPTKEGFTAASGGTACLVLGRHAAIGGEVGRFRDTGTDLWVGQMSIGDCWIYKEEKDSYKAPLSDCAQPHTDQVIGAVSAPKNMDYKKGVDNGNKLCGNKFESSWAPGPARQVFGWVADKEDWNDGFDKVVCTVRRSDGAETSGKISAPGAV” here?
A: failed

Q: For “MAGFMKNAMSYLGMSDVAEGEDDFEDDVDTGETSFDSDHSVTPMPSSSASASTPSAPREQSNPFQGGRVSRITTIHPKTYDDAQMVGRAIRDGIPVVLNLTGVAEAVAYRIVDFSAGVVFGVRGSIERVTPRVFLLSPAQVNIKVEEPEDKGPAHDLFAD”, which protein production is on record?
A: failed

Q: Which protein production does the source give for “MAGGAVSKGNVIVGLFRKRTSLLITSILLGLIGLPSLGVLDIGNLARAEKAATNAPSPTTPDIKPSELKPAYPASAPPPRVDPLPDERDMQERVVEIDYRVSNLLGDFAGNLWVGSWRGLSRIDPKTGKILARVSLPNVAIGALAQDKVGRLWVGTYEGLKRVEPRTNEISAQNLFLPSKRVLSLLTDKRGYLWVGTDNGLALVSPDQGLIMTTVKNLPGVSGNTLTLDADGQLWTGTLDGVVRINTASALIMKRINDLPGTTVQALAISPEGLIWAGMPNNLLVINPKTGVVLRSVTRLRGRNVTAVRFAKDGSVWVGTHNGLLRLNPNTGAVLDEVAGLPSSRVLSLMPDVANKLWIGTSEGLAWLMPKMDKAKPHLAFSRLVK” here?
A: failed

Q: Which protein production does the source give for “MAGMDNLIAIAAAMLYLLSIATIVPGLVNQTGIRAKTVFISAAIALLFHGWLLSDLILHSSGQNLSILNVASLISFIISLAMSLAMFKTRLWFLLPVAYSFSAINLSAATFLPGTFITHLESDPKLLLHISLALFSYSTLSIGALYALQLAWLDHKLKSKKVFSINPNLPPLLLVERQLFKIILIGNLLLTGTLLTGFIFVQDMFAQGKAHKGILSFVAWIVYSILLWGHYRKGWRGKKVTWFAVAGATLLTLAYFGSRFVREIILR” here?
A: failed

Q: For “MAGNFWQSSHYLQWILDKQDLLKERQKDLKFLSEEEYWKLQIFFTNVIQALGEHLKLRQQVIATATVYFKRFYARYSLKSIDPVLMAPTCVFLASKVEEFGVVSNTRLIAAATSVLKTRFSYAFPKEFPYRMNHILECEFYLLELMDCCLIVYHPYRPLLQYVQDMGQEDMLLPLAWRIVNDTYRTDLCLLYPPFMIALACLHVACVVQQKDARQWFAELSVDMEKILEIIRVILKLYEQWKNFDERKEMATILSKMPKPKPPPNSEGEQGPNGSQNSSYSQS”, which protein production is on record?
A: not failed
